The results in this text go back to patent publication US20180360946A1 (ALBERT EINSTEIN COLLEGE OF MEDICINE, published 2018).

Experiment [1] addresses murine mAb 4E11. Briefly: ELISA. On the technique in general: An ELISA detects its analyte on a solid surface through an enzyme-linked reagent.
In experiment [2] the target is T1, mAb 2H12.
T1 construct: also called prototypic AB-loop mAb 2H12
Briefly: ELISA.

The next experiment addresses T2, mAb 3H5-1.
T2 construct: also called prototypic FG-loop mAb 3H5-1
Briefly: ELISA.

For experiment [3], the target named is murine mAb 4E11. Briefly: ELISA, purified DIII.
Experiment [4] addresses T1, mAb 2H12. The experiment in a line: ELISA, purified DIII.
The target in experiment [5] is murine mAb 4E11. Briefly: biolayer interferometry.
The target in experiment [6] is T1, mAb 2H12. The experiment in a line: biolayer interferometry. For orientation: In BLI a coated tip is dipped into the sample, and binding shifts an interference pattern.
The target in experiment [7] is murine mAb 4E11. Briefly: phage ELISA, phage-displayed DIII titrated on immobilized 4E11. Further details: unit not given here.

B1: WT DENV2 EDIII (other)
chain: GMSYSMCTGKFKIVKEIAETQHGTIVIRVQYEGDGSPCKIPFEIMDLEKRHVLGRLITVNPIVTEKDSPVNIEAEPPFGDSYIIIGVEPGQLKLNWFKKGSSIGQ
notes: also called WT DENV2 DIII; DENV2 EDIII WT
As a reminder, the EC50 is the concentration at which the effect is half-maximal. For orientation: Kd means a measure of binding affinity in units of concentration. Turning to B1, the concentration giving a half-maximal response (EC50) with murine mAb 4E11 [1] is 0.002 µM; with mAb 2H12 [2], 0.0003 µM; with mAb 3H5-1, roughly 2000 µM; in the experiment with murine mAb 4E11 [3], 0.0024 µM; in the experiment with mAb 2H12 [4], 0.00032 µM. Further, the equilibrium dissociation constant (Kd) with murine mAb 4E11 [5] was roughly 4 pM; with mAb 2H12 [6], 0.03 nM. The “EC50 (read off the curve)” value with murine mAb 4E11 [7] was roughly 5e+08.
